Source: PMC2971551

Target: truncated neck domain fragment of DC-SIGNR (neck lacking the N-terminal non-repeat region and the first half of the first repeat unit) (human)
Assay: SEC; gel filtration of the purified truncated fragment; profile superimposed on that of the previously described DC-SIGN extracellular domain

stoichiometry N: 4
Substance: truncated neck domain fragment of DC-SIGNR (neck lacking the N-terminal non-repeat region and the first half of the first repeat unit) (domain or fragment)
